Test results as given in a protein production outcome set (Wang et al. 2014).
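Further: failed if final PepcDB status was selected cloned or expressed and not failed if soluble or beyond.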

Experiment: label from the status in PepcDB records
With “MNGPAYEGGFKKFINGEFRMKAEKNLNKTRNISYAGLFFSLALTIFKLFAGLLGHSTALLADAVRSFSELINELVKLLDLSIAGKPEDWSHNYGHGKVATLVTGAGACVLLFAGIQSASLASGELLMFIQGKETEAPELFALSAAAFALVSKEIIPLFSRLAWKQTDKSLSETDIYTGNSRLKSLGLSCFVTLGIGCTFLPGKNWAVTDSLIAVLLSLYLLGSSGRLLYGTANELIEASLDEENNRKIREIINRTEGVLGSGELKTRRIGNGIAINACITVNSSLNIQEVAEIADLAEERLKKAYGEGIYTLIKAEPALERNCSFQKKPKISKEGGNKIIV” the protein production was “failed”. In the case of “MNGRMSLFLRNSIGVMAAMLAGVATPVANAMDNSLASGVVRFALDTGEASSVVGLAMKLEGESADYLQARLMLASGQHDEARAGFEGVFNGASHRGEAALALAEMAQEDGDLTGAENWYQQARRTGYGEVAQKALLGLAELVRIQGKTDAAGQYLARMEDGYWAAVGYMNLAADFARDDLDSSRALVSLRVAMAMAAKDTDTSRSRALLDQLNLRAGYLALGSDDYDKAIDFLEKVSLESYHTPQALYLHGLALSSKGNHRAAMQSWHRAKKFPLAFPGVSDAWIGMGRGYDLSGYPGQAGESWLAANAAYEGERVTLGKLSERITAEGAYKALVQDARSDDIQWFLADNRTLTQPRMAYLLRFMEEPGAQVAVRRVARLDEMVATLDASKYNLEVFIQALEVFMASAGSGGVAPQTAGLEQQQSDLESRLNGLVEQAATPAQVAELRQLKQSLAGAGRRMGALNQQVVQRPERLETVLDDAGALRDATKDLRYKTLSLREQAARELDALALAFVKKQTQRMTHALDKTEQQIAHLYEYLALENLGEGAQ”, the protein production is reported as “failed”. With “MNGRRERAQGTEWAGDPAGCGTMERMPSALPDGEPVPADGALPASALAGAADRPLGFYLHVPYCATRCGYCDFNTYTATELRGTGGVLASRDNYADTLVDEVRLARKVLGDDPREVRTVFVGGGTPTLLAAGDLVRMLGAIRDEFGLAPDAEITTEANPESVDPAYLATLRAGGFNRISFGMQSAKQHVLKILDRTHTPGRPEACVAEARAAGFDHVNLDLIYGTPGESDDDWRASLDAALGAGPDHVSAYALIVEEGTQLARRIRRGEVPMTDDDVHADRYLIAEEALSAAGYDWYEVSNWATSDAGRCLHNELYWRGADWWGAGPGAHSHVGGVRWWNVKHPGAYAGALAAGKSPGAGREILTDEDRRVERILLELRLREGVPLSLLREAGLAASRRALSEGLLQEGPYEAGSAVLTLRGRLLADAVVRDLVD” the protein production was “failed”. With “MNGSNHMKNKTLVISGATRGIGKAIFVRFAQSGVNIAFTYNKNVEEANKIIEDVEQKYSIKAKAYSLNVLEPEQYTELFKQIDADFDRVDFFISNAIIYGRSVVGGFAPFMRLKPKGLNNIYTATVLAFVVGAQEAAKRMQKIGGGAIVSLSSTGNLVYMPNYAGHGNSKNAVETMVKYAAVDLGEFNIRVNAVSGGPIDTDALKAFPDYVEIKEKVEEQSPLKRMGNPNDLAGAAYFLCDETQSGWLTGQTIVVDGGTTFK” the protein production was “failed”. In the case of “MNHRDKQIDSGSGSGENRRTYDCDICKRGFTNPQALGGHNNIHRRERERYPSSSSSSHSFPFSLPLPSQSPSSSTNFTNPPPYFPTIESYLHQGSQPPINPSHNTQYFGSSSSSRGGGRFAQGASHDLNLSLGLGSMNEDDDTHRSPPETGGSQPQDGDLDLDLRLGGHRHH”, the protein production is reported as “failed”. With “MNHRLAGIISPLGHITTDPIRSSSVNPSSPVYYKTIVNHFKSQTGNHVSPGLTNQEISAVESSHGFSFPLDLRSILQTGLPVGTNFPNWRTGSNRNNLLLPLLNLSQHVVRNGFWVDSWGIRPGNDAEALSLVKKLIEIAPVLVPVYGDFYVPSTTPNLAGNPVFQIDGDGVRELSCDVVGFLKGIGRSETPTEDRRRRRRPRRVEFWSDVAEGWRFVVARDYTRDWWSALGFEGLTACLDDAFWKLREAGWTEDDVRDMMMMDSVDQNTCIQQQTQTQSRDVVYAFGDEGMNERDRDTCTEDEDHQKGEVTTLRHLLLYDRLMS” the protein production was “failed”. With “MNHWSMPPNPEKALMLAQRAVAVFVYDAVRLEGINFTLPEVQTLLQGVTVGGHRLSDQQIAVNQGEAWKLLFQMIRDGRFELTPDCAMALHGVAAKEEALEWGCFRSGSVLIAGTEYEPPAASELPTRFDRMIDELQHMDDVHDQAVHLFLTMARCQFFYDVNKRMGRFMMNGHLLSNGYPAINIPASSQLEFNELMLRFYDSGDQREMNAFVRSCMDERVVLIMKEELEHHHHHH” the protein production was “failed”. With “MNIFIAGLNYNMSEAELGELFAEYGEVVSVKIIMDRETGRSKGYGFVEMADDEAGDKAIAALNEVDMDGKTLSVSVARPREERPRRSYGNNGGGGYRGGNNSRGGGYGGSRGDNGYGGGRNRY” the protein production was “failed”.
